In IntAct's records for PubMed 18547146:

B1: BH3-interacting domain death agonist (Mus musculus), P70444 (parent)
chain: MDSEVSNGSGLGAEHITDLLVFGFLQSSGCTRQELEVLGRELPVQAYWEADLEDELQTDGSQASRSFNQGRIEPDSESQEEIIHNIARHLAQIGDEMDHNIQPTLVRQLAAQFMNGSLSEEDKRNCLAKALDEVKTAFPRDMENDKAMLIMTMLLAKKVASHAPSLLRDVFHTTVNFINQNLFSYVRNLVRNEMD

Variants of: B1
Details: with BCL2L1, Q07817-1
BCL2L1, Q07817-1, sequence (Q07817 whole entry): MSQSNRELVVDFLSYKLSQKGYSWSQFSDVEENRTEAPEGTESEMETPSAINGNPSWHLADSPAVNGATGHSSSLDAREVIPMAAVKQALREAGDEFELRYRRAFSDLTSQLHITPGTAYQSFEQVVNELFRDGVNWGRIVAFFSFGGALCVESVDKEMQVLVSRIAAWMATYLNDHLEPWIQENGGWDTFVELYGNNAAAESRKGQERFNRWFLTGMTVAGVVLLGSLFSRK

Variant | effect of a mutation on the interaction
M97A;D98A | disrupting interaction
